The source of these data is patent publication JP2023550785A (dated 2023).

Assay [1] addresses SARS-CoV (Urbani strain) prefusion-stabilized spike (S) protein / S ectodomain trimer (SARS-CoV (Urbani strain), UniProt P59594 14-1195). Put plainly: SPR (Biacore T200), S ectodomain trimer captured, Fab as analyte. (Surface plasmon resonance follows binding to a sensor surface in real time, without labels.)
Assay [2] concerns the target T1, MERS-CoV (London1/2012) prefusion-stabilized spike (S) protein / S ectodomain trimer (MERS-CoV (London1/2012), UniProt K9N5Q8 18-1296).
T1 sequence: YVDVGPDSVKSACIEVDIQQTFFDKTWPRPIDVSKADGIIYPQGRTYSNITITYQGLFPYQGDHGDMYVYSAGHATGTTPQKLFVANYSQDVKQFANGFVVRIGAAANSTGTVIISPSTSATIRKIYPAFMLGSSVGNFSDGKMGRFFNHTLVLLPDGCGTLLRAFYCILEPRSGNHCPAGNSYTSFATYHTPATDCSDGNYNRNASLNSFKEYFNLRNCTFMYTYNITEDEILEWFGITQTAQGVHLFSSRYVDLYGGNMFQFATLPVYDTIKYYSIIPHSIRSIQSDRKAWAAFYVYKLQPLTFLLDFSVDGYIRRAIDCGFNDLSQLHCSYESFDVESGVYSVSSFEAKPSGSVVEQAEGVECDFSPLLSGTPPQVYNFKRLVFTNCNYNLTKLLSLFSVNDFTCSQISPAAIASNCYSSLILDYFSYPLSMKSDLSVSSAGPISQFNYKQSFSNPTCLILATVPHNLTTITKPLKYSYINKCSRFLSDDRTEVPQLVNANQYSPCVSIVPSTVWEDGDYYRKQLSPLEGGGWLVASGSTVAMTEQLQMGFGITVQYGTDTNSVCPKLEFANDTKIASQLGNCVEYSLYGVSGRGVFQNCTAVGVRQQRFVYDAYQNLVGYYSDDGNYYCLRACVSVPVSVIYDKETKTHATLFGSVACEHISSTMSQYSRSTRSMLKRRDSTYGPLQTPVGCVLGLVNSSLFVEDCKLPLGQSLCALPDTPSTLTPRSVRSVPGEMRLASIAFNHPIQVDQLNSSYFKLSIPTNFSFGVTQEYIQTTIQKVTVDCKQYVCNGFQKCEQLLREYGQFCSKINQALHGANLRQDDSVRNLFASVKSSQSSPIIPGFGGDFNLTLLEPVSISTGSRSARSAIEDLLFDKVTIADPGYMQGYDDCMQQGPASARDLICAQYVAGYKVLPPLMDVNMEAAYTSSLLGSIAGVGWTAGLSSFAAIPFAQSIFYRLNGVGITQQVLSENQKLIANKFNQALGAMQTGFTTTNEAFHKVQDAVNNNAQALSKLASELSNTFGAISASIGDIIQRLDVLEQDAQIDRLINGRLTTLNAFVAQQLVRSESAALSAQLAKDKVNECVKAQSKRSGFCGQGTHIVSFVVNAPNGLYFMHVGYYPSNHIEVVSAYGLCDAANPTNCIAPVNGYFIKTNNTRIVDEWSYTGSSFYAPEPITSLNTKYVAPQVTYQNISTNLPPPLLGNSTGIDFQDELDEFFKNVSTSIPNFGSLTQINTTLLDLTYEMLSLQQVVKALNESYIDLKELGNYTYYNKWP

Assay [3] deals with T2, HCoV-HKU1 prefusion-stabilized spike (S) protein / S ectodomain trimer (human coronavirus HKU1, UniProt Q5MQD0 13-1300).
T2 sequence: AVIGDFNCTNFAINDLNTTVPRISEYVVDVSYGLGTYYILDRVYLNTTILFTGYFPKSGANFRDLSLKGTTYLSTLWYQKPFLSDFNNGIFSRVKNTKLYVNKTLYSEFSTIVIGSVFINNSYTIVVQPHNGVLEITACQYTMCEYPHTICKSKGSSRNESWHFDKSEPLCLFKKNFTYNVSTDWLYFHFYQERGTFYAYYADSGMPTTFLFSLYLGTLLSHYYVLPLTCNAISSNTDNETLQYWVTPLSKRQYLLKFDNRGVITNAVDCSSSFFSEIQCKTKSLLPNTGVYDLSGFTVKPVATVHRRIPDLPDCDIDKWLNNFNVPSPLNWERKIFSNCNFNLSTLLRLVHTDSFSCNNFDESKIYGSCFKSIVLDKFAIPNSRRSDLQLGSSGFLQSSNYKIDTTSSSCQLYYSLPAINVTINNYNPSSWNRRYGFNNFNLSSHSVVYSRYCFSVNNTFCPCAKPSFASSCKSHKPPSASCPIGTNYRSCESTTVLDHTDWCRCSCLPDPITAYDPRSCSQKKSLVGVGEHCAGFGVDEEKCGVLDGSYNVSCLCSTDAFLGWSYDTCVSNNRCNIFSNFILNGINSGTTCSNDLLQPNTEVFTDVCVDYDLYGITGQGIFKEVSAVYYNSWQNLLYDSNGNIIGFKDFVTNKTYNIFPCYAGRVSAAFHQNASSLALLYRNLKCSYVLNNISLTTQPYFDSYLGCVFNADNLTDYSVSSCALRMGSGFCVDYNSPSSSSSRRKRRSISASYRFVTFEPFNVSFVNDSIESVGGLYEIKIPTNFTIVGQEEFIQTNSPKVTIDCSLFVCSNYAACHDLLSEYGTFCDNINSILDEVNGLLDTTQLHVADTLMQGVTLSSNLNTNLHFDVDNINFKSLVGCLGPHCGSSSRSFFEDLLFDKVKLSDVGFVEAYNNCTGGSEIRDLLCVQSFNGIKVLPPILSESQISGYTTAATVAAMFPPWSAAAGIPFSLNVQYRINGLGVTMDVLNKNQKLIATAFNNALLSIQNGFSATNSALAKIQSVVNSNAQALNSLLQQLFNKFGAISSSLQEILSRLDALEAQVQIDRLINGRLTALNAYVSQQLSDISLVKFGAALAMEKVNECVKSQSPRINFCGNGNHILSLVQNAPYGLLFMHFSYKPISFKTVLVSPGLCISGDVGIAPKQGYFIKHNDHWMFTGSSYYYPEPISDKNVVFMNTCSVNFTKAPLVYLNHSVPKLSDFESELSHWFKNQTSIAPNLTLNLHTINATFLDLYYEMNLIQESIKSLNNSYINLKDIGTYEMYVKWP

B1: S2P6 Fab fragment (Fab, V domains shown)
VH: EVQLVQSGAEVKKPGASVKVSCKASGYTFTSQYMHWVRQAPGQGLEWIGIINPSGVHTSYAQKFQGRVTLTRDTSTSTLYMELSSLRSEDTAVYYCARGSPKGAFDYWGQGTLVTVSS
VL: not shown
The term Kd denotes the concentration at which binding is half-saturated. For the molecule B1, the Kd in assay [1] is 7 nM; in assay [2] it was 12 nM; in assay [3], about 120 nM.
